These results are taken from paper PMC6474823 (Molecular cell, 2019).

Assay [1] deals with Src^CD WT (catalytic domain of Src, residues 261-536) (human, UniProt P12931 261-536). In words: pull-down.
Assay [2] has as its target Src^FL WT (full-length Src, residues 1-536, non-phosphorylated, lacking an N-terminal myristoyl group) (human, UniProt P12931 1-536). In words: pull-down.

B1: SH4^SNAP WT (residues 1-18 of Src fused to the N-terminus of SNAP-tag through a LPETG linker) (domain or fragment, human)
chain: MGSNKSKPKDASQRRRSLLPETG
B1: the binding result in assay [1] and in assay [2] was “binds” each time.
